Measured values reported in US20220127350A1 (NUMAB THERAPEUTICS, published 2022).

Tests used:
cynomolgus monkey IL-17A [1] = molecular target: T1, cynomolgus monkey IL-17A (Macaca fascicularis (cynomolgus monkey)); assay: SPR (Biacore T200)
T1 construct: also called cyno IL-17A; cyno IL17A
Description: (§1) After each analyte injection cycle the CAP sensor chip was regenerated and new antigen was captured. The scFvs were injected as analyte using a dose response multi-cycle kinetic assay with concentrations of the analyte ranging from 0.35 to 90 nM diluted in running buffer. Obtained sensorgrams were fitted using the 1:1 binding model. In addition, the scFvs were analyzed in an alternative SPR assay setup (“direct setup”).

human IL-17A [2] = molecular target: T2, human IL-17A (human, UniProt Q16552 24-155); assay: competitive ELISA: IL-17RA coated, biotinylated IL-17A preincubated with scFv
T2 construct: Recombinant human IL-17A (Peprotech Cat. No. 200-17), disulfide-linked homodimer from E. coli; Biotinylated or RPE-labelled in some assays; also called hIL-17A; IL-17A-RPE (labelled)
Description: Finally, Tetramethylbenzidin solution (KPL, Cat. No. 53-00-00) was added to develop the plate for 5 to 10 minutes and the reaction was stopped with 1 M HCl. The plate was read using a microtiter plate reader (Infinity reader M200 Pro, Tecan) at a wavelength of 450 nm and 570 nm (reference wavelength).

human IL-17A [3] = molecular target: T2, human IL-17A; assay: SPR (Biacore T200), direct setup: IL-17A amine-coupled on CM5, scFv as analyte
Description: as §1

human IL-17A [4] = molecular target: T2, human IL-17A; assay: SPR (Biacore T200), capture setup: biotinylated IL-17A captured, scFv as analyte
Description: as §1

human IL-17A [5] = molecular target: T2, human IL-17A; assay: cell-based or functional assay
cynomolgus monkey IL-17A [6] = molecular target: T1, cynomolgus monkey IL-17A; assay: SPR (Biacore T200), cynomolgus IL-17A, scFv as analyte
Description: as §1

human IL-17A [7] = molecular target: T2, human IL-17A; assay: competitive ELISA: biotinylated human IL-17A preincubated with the trispecific molecule, then binding to coated IL-17RA detected (blocked ligand: IL-17RA) [left panel]
human serum albumin [8] = molecular target: T3, human serum albumin (human, UniProt P02768 25-609); assay: SPR (MASS-1), HSA immobilised, trispecific as analyte, pH 5.5
T3 construct: also called HSA
Description: (§2) The binding to human serum albumin (HSA) and cynomolgus serum albumin (CSA) was assessed for purified trispecific molecules by running SPR spectroscopy on a MASS-1 device (Sierra Sensors). HSA was directly immobilized on a high capacity amine sensor chip (Sierra Sensors) and trispecific molecules were injected as analyte using a dose response multicycle kinetic assay with concentrations of the analyte ranging from 0.35 to 90 nM diluted either in running buffer at pH5.5 or pH7.5. Obtained sensorgrams were fitted using the 1:1 binding model. Affinity to CSA was assessed in a similar approach using a CSA immobilized sensor chip.

human IL-17A [9] = molecular target: T2, human IL-17A; assay: SPR (MASS-1), trispecific immobilised, antigens injected sequentially
Description: (§3) All possible sequences of antigen injection were tested resulting in six possible sequences.
(§4) To evaluate concomitant binding of each antigen to trispecific molecules, the binding level relative to the theoretical Rmax was calculated for each injection using the respective ligand and analyte molecular masses and the immobilization level of the trispecific molecules. The average of the maximum binding relative to theoretical Rmax for each antigen was obtained by averaging individual maximum binding relative to theoretical Rmax obtained for the two injections where the respective antigen was injected as first analyte (in the absence of other bound antigens). Next, the binding relative to the theoretical Rmax of each analyte injection was compared to its average maximum binding to calculate the fraction binding obtained in the presence of other bound antigens. […] The binding levels relative to the theoretical Rmax and the average of maximum binding (binding levels in the absence of other antigens) of each antigen were calculated.

human TNFα [10] = molecular target: T4, human TNFα (human, UniProt P01375 77-233); assay: as above
T4 construct: Biotinylated in the Biacore assay
Description: as §3, §4

human serum albumin [11] = molecular target: T3, human serum albumin; assay: as above
Description: as §3, §4

human IL-17A [12] = molecular target: T2, human IL-17A; assay: cell-based or functional assay; remark: listed apart in the source
human TNFα [13] = molecular target: T4, human TNFα; assay: cell-based or functional assay
human TNFα [14] = molecular target: T4, human TNFα; assay: cell-based or functional assay; remark: listed apart in the source
human IL-17A [15] = molecular target: T2, human IL-17A; assay: SPR (Biacore T200), biotinylated antigen captured (Biotin-CAPture), trispecific as analyte;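 note: multicycle dose-response kinetics, analyte at 0.35–90 nM in running buffer, CAP chip regenerated with fresh antigen each cycle, sensorgrams fitted to a 1:1 binding model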
Description: (§5) In this experiment, the biotinylated antigens were captured using the Biotin-CAPture kit from Biacore. After each analyte injection cycle the CAP sensor chip was regenerated and new antigen was captured. Trispecific molecules were injected as analyte using a dose response multicycle kinetic assay with concentrations of the analyte ranging from 0.35 to 90 nM diluted in running buffer. Obtained sensorgrams were fitted using the 1:1 binding model.

human TNFα [16] = molecular target: T4, human TNFα; assay: as above
Description: as §5

human IL-17A [17] = molecular target: T2, human IL-17A; assay: competitive ELISA: IL-17RA coated, biotinylated IL-17A preincubated with trispecific molecule
Description: (§6) Finally, Tetramethylbenzidine solution was added to develop the plate for 5 to 10 minutes and the reaction was stopped with 1 M HCl. The plate was read at 450 nm and 570 nm (reference wavelength).

human serum albumin [18] = molecular target: T3, human serum albumin; assay: SPR (MASS-1), HSA immobilised, trispecific as analyte, pH 7.4
Description: as §2

human serum albumin [19] = molecular target: T3, human serum albumin; assay: SPR (MASS-1), trispecific immobilised, HSA injected as last analyte
Description: as §3, §4

human TNFα [20] = molecular target: T4, human TNFα; assay: SPR (summary table), affinity to human TNF
Description: as §5

human IL-17A [21] = molecular target: T2, human IL-17A; assay: competitive ELISA, blocking of IL-17A/IL-17RA interaction (summary table)
Description: as §6

human serum albumin [22] = molecular target: T3, human serum albumin; assay: SPR (summary table), affinity to HSA at pH 5.5
Description: as §2

human IL-17A [23] = molecular target: T2, human IL-17A; assay: SPR (summary table), affinity to human IL-17, capture setup
Description: as §5

IC50 (read off the curve) (human IL-17A [7]) | Kd (human serum albumin [8]) | koff (human serum albumin [8]) | kon (human serum albumin [8]) | antigen binding relative to average maximum binding (human IL-17A [9]) | antigen binding relative to average maximum binding (human TNFα [10]) | antigen binding relative to average maximum binding (human serum albumin [11]) | rel. IC50 to secukinumab (ng/ml) in HT-29 assay, +HSA (human IL-17A [12]) | rel. IC50 to secukinumab (ng/ml) in HT-29 assay, -HSA (human IL-17A [12]) | rel. IC50 to A13 (nM) in HT-29 assay, +HSA (human TNFα [13]) | rel. IC50 to A13 (nM) in HT-29 assay, -HSA (human TNFα [13]) | rel. IC50 in L929 assay (IC50, A13/IC50, test sample, nM) (human TNFα [14]) | Kd (human IL-17A [15]) | koff (human IL-17A [15]) | kon (human IL-17A [15]) | Kd (human TNFα [16]) | koff (human TNFα [16]) | kon (human TNFα [16]) | rel. IC50 to secukinumab (IC50, secukinumab/IC50, test sample, ng/ml) (human IL-17A [17]) | Binder | IC50 in L929 assay, cell viability (human TNFα [14]) | other results
 |  |  |  |  |  |  |  |  |  |  |  |  |  |  |  |  |  |  | A2 (humanized anti-IL-17A scFv, STR graft of 27-07-G02) (scFv, VL-linker-VH; also called 27-07-G02-sc02) scFv: DIQMTQSPSSLSASVGDRVTITCQASQTINYWLAWYQQKPGKPPKLLIYRASTLASGVPSRFSGSGSGTDFTLTISSLQPEDFATYYCQNYYYSTSRSYGFGGGTKLTVLGGGGGSGGGGSGGGGSGGGGSEVQLVESGGGLVKPEGSLRLSCAASGFSFSSDYWMCWVRQAPGKGLEWIACIYAGDVDDTDYASWARGRFTISRDNSKNTVYLQMNSLRAEDTAVYYCARVDGFDITYFDLWGQGTLVTVSS |  | KD, cyno/KD, human (cynomolgus monkey IL-17A [1]): 1.69; IC50 (human IL-17A [2]): 1.6 ng/mL; Kd (human IL-17A [3]): 0.0551 nM; koff (human IL-17A [3]): 5.92e-05 s⁻¹; kon (human IL-17A [3]): 1.08e+06 M⁻¹ s⁻¹; Kd (human IL-17A [4]): 3.07 nM; koff (human IL-17A [4]): 0.000697 s⁻¹; kon (human IL-17A [4]): 227000 M⁻¹ s⁻¹; IC50 in HT-29 assay, GRO-α secretion (human IL-17A [5]): 0.1 ng/mL; Kd (cynomolgus monkey IL-17A [6]): 5.19 nM; koff (cynomolgus monkey IL-17A [6]): 0.000868 s⁻¹; kon (cynomolgus monkey IL-17A [6]): 167000 M⁻¹ s⁻¹
~3 ng/mL | 1.67 nM | 0.000308 s⁻¹ | 185000 M⁻¹ s⁻¹ | ≥ 70% | ≥ 70% | ≥ 70% | 6 | 7.1 | 0.3 | 0.6 | 0.2 | 0.337 nM | 7.23e-05 s⁻¹ | 215000 M⁻¹ s⁻¹ | 0.257 nM | 2.33e-05 s⁻¹ | 90800 M⁻¹ s⁻¹ | 6.3 | A4 (trispecific tribody, Fab-(scFv)2) (other, Trispecific tribody) light: DIQMTQSPSSLSASVGDRVTITCQASQTINYWLAWYQQKPGKAPKLLIYRASTLASGVPSRFSGSGSGTDFTLTISSLQPEDFATYYCQNYYYSTSRSYGFGGGTKLTVLGRTRTVAAPSVFIFPPSDEQLKSGTASVVCLLNNFYPREAKVQWKVDNALQSGNSQESVTEQDSKDSTYSLSSTLTLSKADYEKHKVYACEVTHQGLSSPVTKSFNRGECGGGGSGGGGSDIQMTQSPSSLSASVGDRVTINCQASESISSWLAWYQQKPGKRPKLLIYKASTLASGVPSRFSGSGSGTDYTLTISSLQPEDFATYYCQGYYLDSSVDDNVFGGGTKLTVLGGGGGSGGGGSGGGGSGGGGSEVQLVESGGGLVQPGGSLRLSCAASGIDFSTYGISWVRQAPGKGLEWIAYIYPDYGITDYASWVNGRFTISLDNAQNTVYLQMNSLRAEDTAVYYCARSGSYYSRGWGAHYFNLWGQGTLVTVSS heavy: EVQLVESGGGLVQPGGSLRLSCAASGFSFSSDYWMCWVRQAPGKGLEWIGCIYAGDVDDTDYASWARGRFTISRDNSKNTVYLQMNSLRAEDTAVYYCARVDGFDITYFDLWGQGTLVTVSSASTKGPSVFPLAPSSKSTSGGTAALGCLVKDYFPEPVTVSWNSGALTSGVHTFPAVLQSSGLYSLSSVVTVPSSSLGTQTYICNVNHKPSNTKVDKKVEPKSCGGGGSGGGGSDIQMTQSPSSLSASVGDRVTITCQSSESVYSNNQLSWYQQKPGQPPKLLIYDASDLASGVPSRFSGSGSGTDFTLTISSLQPEDFATYYCAGGFSSSSDTAFGGGTKLTVLGGGGGSGGGGSGGGGSGGGGSEVQLVESGGGLVQPGGSLRLSCAASGFSLSSNAMGWVRQAPGKGLEYIGIISVGGFTYYASWAKGRFTISRDNSKNTVYLQMNSLRAEDTATYFCARDRHGGDSSGAFYLWGQGTLVTVSS | 0.08 nM | Kd (human serum albumin [18]): 4.79 nM; koff (human serum albumin [18]): 0.000417 s⁻¹; kon (human serum albumin [18]): 87200 M⁻¹ s⁻¹; relative binding level compared to average maximum binding (human serum albumin [19]): ~70%; Kd (human TNFα [20]): 0.257 nM; rel. IC50 (IC50, secukinumab/IC50, test sample, ng/ml) (human IL-17A [21]): 6.3; Kd (human serum albumin [22]): 1.67 nM; Kd (human IL-17A [23]): 0.337 nM
~9 ng/mL | 0.947 nM | 0.00059 s⁻¹ | 623000 M⁻¹ s⁻¹ | ≥ 70% | ≥ 70% | ≥ 70% | 11.8 | 2.4 | 0.5 | 0.2 | 0.003 | 1.53 nM | 9.04e-05 s⁻¹ | 59100 M⁻¹ s⁻¹ | < 0.0232 nM | < 1e-06 s⁻¹ | 43100 M⁻¹ s⁻¹ | 2.2 | A3 (trispecific tribody, Fab-(scFv)2) (other, Trispecific anti-IL-17A x TNFα x HSA tribody; Expressed in CHO-S) light: DIQMTQSPSSLSASVGDRVTITCQSSESVYSNNQLSWYQQKPGQPPKLLIYDASDLASGVPSRFSGSGSGTDFTLTISSLQPEDFATYYCAGGFSSSSDTAFGGGTKLTVLGRTRTVAAPSVFIFPPSDEQLKSGTASVVCLLNNFYPREAKVQWKVDNALQSGNSQESVTEQDSKDSTYSLSSTLTLSKADYEKHKVYACEVTHQGLSSPVTKSFNRGECGGGGSGGGGSDIQMTQSPSSLSASVGDRVTINCQASESISSWLAWYQQKPGKRPKLLIYKASTLASGVPSRFSGSGSGTDYTLTISSLQPEDFATYYCQGYYLDSSVDDNVFGGGTKLTVLGGGGGSGGGGSGGGGSGGGGSEVQLVESGGGLVQPGGSLRLSCAASGIDFSTYGISWVRQAPGKGLEWIAYIYPDYGITDYASWVNGRFTISLDNAQNTVYLQMNSLRAEDTAVYYCARSGSYYSRGWGAHYFNLWGQGTLVTVSS heavy: EVQLVESGGGLVQPGGSLRLSCAASGFSLSSNAMGWVRQAPGKGLEYIGIISVGGFTYYASWAKGRFTISRDNSKNTVYLQMNSLRAEDTATYFCARDRHGGDSSGAFYLWGQGTLVTVSSASTKGPSVFPLAPSSKSTSGGTAALGCLVKDYFPEPVTVSWNSGALTSGVHTFPAVLQSSGLYSLSSVVTVPSSSLGTQTYICNVNHKPSNTKVDKKVEPKSCGGGGSGGGGSDIQMTQSPSSLSASVGDRVTITCQASQTINYWLAWYQQKPGKAPKLLIYRASTLASGVPSRFSGSGSGTDFTLTISSLQPEDFATYYCQNYYYSTSRSYGFGGGTKLTVLGGGGGSGGGGSGGGGSGGGGSEVQLVESGGGLVQPGGSLRLSCAASGFSFSSDYWMCWVRQAPGKGLEWIGCIYAGDVDDTDYASWARGRFTISRDNSKNTVYLQMNSLRAEDTAVYYCARVDGFDITYFDLWGQGTLVTVSS | 4.5 nM | Kd (human serum albumin [18]): 1.37 nM; koff (human serum albumin [18]): 0.000557 s⁻¹; kon (human serum albumin [18]): 406000 M⁻¹ s⁻¹; Kd (human TNFα [20]): < 0.0232 nM; rel. IC50 (IC50, secukinumab/IC50, test sample, ng/ml) (human IL-17A [21]): 2.2; Kd (human serum albumin [22]): 0.947 nM; Kd (human IL-17A [23]): 1.53 nM
